From PMC9405932 come the findings set out here.

In this test the target is BCAS1-SV1 (novel splice variant of BCAS1), full length, Gal4 fusion for yeast two-hybrid (human).
Chain of BCAS1-SV1 (novel splice variant of BCAS1), full length, Gal4 fusion for yeast two-hybrid (human) (O75363 whole entry, change not shown, the tested form may be a part, canonical isoform): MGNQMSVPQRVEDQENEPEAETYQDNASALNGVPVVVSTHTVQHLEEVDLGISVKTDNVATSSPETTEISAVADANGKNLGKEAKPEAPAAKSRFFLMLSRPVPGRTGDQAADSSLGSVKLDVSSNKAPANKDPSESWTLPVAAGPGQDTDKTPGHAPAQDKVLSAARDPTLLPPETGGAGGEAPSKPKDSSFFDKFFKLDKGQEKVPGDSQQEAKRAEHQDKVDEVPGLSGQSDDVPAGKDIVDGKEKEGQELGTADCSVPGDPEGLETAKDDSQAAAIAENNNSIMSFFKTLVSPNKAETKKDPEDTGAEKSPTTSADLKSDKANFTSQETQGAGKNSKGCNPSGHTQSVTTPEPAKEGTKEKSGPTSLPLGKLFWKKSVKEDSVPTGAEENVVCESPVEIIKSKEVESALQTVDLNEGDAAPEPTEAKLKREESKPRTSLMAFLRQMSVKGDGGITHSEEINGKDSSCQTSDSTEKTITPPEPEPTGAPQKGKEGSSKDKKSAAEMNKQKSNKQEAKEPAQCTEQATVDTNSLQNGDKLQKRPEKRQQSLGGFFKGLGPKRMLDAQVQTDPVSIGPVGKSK

Substance “β-arrestin 2 (ARRB2), full length, Gal4 fusion for yeast two-hybrid (from UniProt P32121-1 1-409) (natural protein)” gave a decrease of migration of GBM8401 cells (scratch wound assay) by maackiain (MK), dose series up to 1 μM; MK is said to disrupt the pair of 67% and a decrease of migration of M059K cells (scratch wound assay) by maackiain (MK), dose series up to 1 μM; MK is said to disrupt the pair of 70%.
